Where a chain is given by its changes, count along the chain named. Each block holds one binder with its values, some of them ahead of it.
Legend:
[1] = target: T1, Human CD19-his protein (human, UniProt P15391 20-291); assay: ELISA, antibody at 0.001 nM
T1 construct: bought protein; also called human CD19 protein; recombinant human CD19-His; not shown: His tag
T1 sequence (looked up): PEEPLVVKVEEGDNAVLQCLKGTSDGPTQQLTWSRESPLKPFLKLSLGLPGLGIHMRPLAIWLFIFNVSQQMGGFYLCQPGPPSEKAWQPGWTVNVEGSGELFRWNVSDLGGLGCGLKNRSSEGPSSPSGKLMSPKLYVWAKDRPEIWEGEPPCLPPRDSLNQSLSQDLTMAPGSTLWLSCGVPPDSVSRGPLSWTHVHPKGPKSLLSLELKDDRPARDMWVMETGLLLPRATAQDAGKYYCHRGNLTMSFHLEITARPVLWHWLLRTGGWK
Description: (§1) Human CD19-his protein (purchased from ACROBiosystems, catalog number: CD9-H52H2) was diluted with PBS to a final concentration of 4 μg/mL, and then added to a 96-well ELISA plate at 100 μl/well. The plate was sealed with a plastic film and incubated overnight at 4° C., the plate was washed 2 times with PBS the next day, and then a blocking solution [PBS+2% (w/w) BSA] was added for blocking at room temperature for 2 h. The blocking solution was poured off, and 100 nM gradiently diluted CD19 chimeric antibody or control antibody was added at 50 μl/well. After incubation at 37° C. for 2 h, the plate was washed 3 times with PBS. […] TMB substrate was added at 50 μl/well, and incubated at room temperature for 10 min, and then a stop solution (1.0 N HCl) was added at 50 μl/well. The OD450 nm values were read by an ELISA microplate reader (Multimode Plate Reader, EnSight, purchased from Perkin Elmer).

[2] = target: T1, Human CD19-his protein; assay: ELISA, antibody at 0.0001 nM
Description: as §1

[3] = target: T2, human CD19 exon1-3-his protein (human, UniProt P15391 20-186, limits assumed); assay: ELISA, coated at 2 ug/mL
T2 construct: made in HEK293E cells; also called membrane-distal end; not shown: His tag
T2 sequence (looked up): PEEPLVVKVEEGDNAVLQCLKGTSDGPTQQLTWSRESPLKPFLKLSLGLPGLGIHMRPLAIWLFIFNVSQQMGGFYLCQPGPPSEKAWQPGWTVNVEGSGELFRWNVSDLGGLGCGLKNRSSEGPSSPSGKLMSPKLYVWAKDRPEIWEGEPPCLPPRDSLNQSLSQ
Description: as §1
(§2) CD19 protein contains 4 exons in the extracellular region, in which exons 1-3 are located at the membrane-distal end and exon 4 is located at the membrane-proximal end. […] To identify the distribution of antigen binding epitopes of the chimeric antibodies, human CD19 exon 1-3-His (membrane-distal end) was used to coat at 2 μg/mL according to the ELISA method in example 5.1.

[4] = target: T1, Human CD19-his protein; assay: ELISA, antibody at 0.01 nM
Description: as §1

[5] = target: T1, Human CD19-his protein; assay: ELISA, antibody at 0.10 nM
Description: as §1

[6] = target: T3, murine CD19 protein (murine, UniProt P25918 17-287, limits assumed); assay: ELISA, coated murine CD19
T3 construct: bought protein; also called commercial murine CD19
T3 sequence (looked up): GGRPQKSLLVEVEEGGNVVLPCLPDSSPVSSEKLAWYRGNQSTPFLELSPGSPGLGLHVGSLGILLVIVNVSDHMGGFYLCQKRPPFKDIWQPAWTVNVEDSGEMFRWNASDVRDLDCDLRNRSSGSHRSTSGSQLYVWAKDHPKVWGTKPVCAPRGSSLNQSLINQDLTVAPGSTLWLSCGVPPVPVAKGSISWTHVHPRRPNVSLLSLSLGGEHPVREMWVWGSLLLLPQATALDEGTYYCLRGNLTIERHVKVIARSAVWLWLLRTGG
Description: as §1
In order to detect the species cross-binding activity of the chimeric antibodies, an ELISA plate was coated with commercial murine CD19 (ACROBiosystems, catalog number: 50510-M08H) and monkey CD19 (ACROBiosystems, catalog number: 90051-C08H), respectively, and the ELISA detection was performed according to the method in example 5.1.

[7] = target: T1, Human CD19-his protein; assay: ELISA, antibody at 100 nM
Description: as §1

[8] = target: T1, Human CD19-his protein; assay: ELISA, antibody at 1.00 nM
Description: as §1

[9] = target: T1, Human CD19-his protein; assay: ELISA, antibody at 10 nM
Description: as §1

[10] = target: T4, human CD19 exon1-3-His tag protein (human, UniProt P15391 20-186, limits assumed); assay: ELISA on coated human CD19 exon 1-3-His
T4 construct: membrane-distal part of the extracellular region, made in HEK293E cells; not shown: His tag
T4 sequence (looked up): T2 sequence (looked up)
Description: as §1, §2

[11] = target: T5, Human CD19-his protein (human, UniProt P15391 20-291); assay: SPR Biacore, Ab captured on Protein A, CD19-His analyte
T5 construct: bought protein; also called recombinant human CD19-His; CD19 full-length protein; not shown: His tag
T5 sequence (looked up): T1 sequence (looked up)
Description: A sample buffer and a running buffer were HBS-EP+ (10 mM HEPES, 150 mM NaCl, 3 mM EDTA and 0.05% surfactant P20) (GE Healthcare; BR-1006-69). The flow-through cell was set to 25° C. The sample block was set to 16° C. Both were pretreated with the running buffer. In each cycle, an antibody to be detected was first captured with a Protein A chip, and then a single concentration of CD19 antigen protein was injected. The binding and dissociation processes of the antibody and the antigen protein were recorded, and finally Glycine pH 1.5 (GE Healthcare; BR-1003-54) was used to complete chip regeneration. The binding was measured by injecting different concentrations of recombinant human CD19-His proteins in a solution for 240 s with a flow rate of 30 μl/min. The concentration started from 200 nM (see the detailed results for the actual concentration in the test) and was diluted at 1:1, making a total of 5 concentrations. The dissociation phase was monitored for up to 600 s and was triggered by switching from sample solution to running buffer. The surface was regenerated by washing with a 10 mM glycine solution (pH 1.5) for 30 s at a flow rate of 30 μl/min. Bulk refractive index difference was corrected by subtracting the response obtained from the goat anti-human Fc surface. Blank injection was also subtracted (=double reference). For calculation of apparent KD and other kinetic parameters, Langmuir 1:1 model was used.

EC50 (read off the curve) [10]: ~0.2 nM
Kd [11]: 5.32 nM
koff [11]: 0.00119 s⁻¹
kon [11]: 224000 M⁻¹ s⁻¹
B2: F3.148.10 (antibody, human IgG1, V domains shown)
VH: EVQLQQSGAELVRPGSSVTMSCKTSGYTFTNYGINWVKQRPGQGLEWIGYIFIGNDYTEYNEKFKGKATLTSDTSSSTAYMQLSSLTSEDSAIYFCTRFYSNYYGMDPWGQGTSVTVSS
VL: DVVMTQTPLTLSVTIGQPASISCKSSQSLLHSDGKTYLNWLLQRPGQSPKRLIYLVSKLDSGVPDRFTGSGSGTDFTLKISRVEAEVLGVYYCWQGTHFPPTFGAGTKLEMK
notes: human-murine chimeric antibody, human IgG1 constant

OD450 [1]: 0.05
OD450 [2]: 0.05
binding result [3]: no binding
OD450 [4]: 0.05
OD450 [5]: 0.07
binding result [6]: no binding
OD450 [7]: 0.7
OD450 [8]: 0.2
OD450 [9]: 0.46
B5: F3.126.15 (antibody, human IgG1, V domains shown)
VH: QVQLQQPGAELVMPGASVKLSCKASGYTFTSYWMHWVKQRPGQGLEWIGEIDPSDSYTTYNQNFKGKATLTVDISTSTAYIQLSNLTSEDSAVYYCARLTGNYIHYWGQGTTLTVSS
VL: DIVMTQSHKFMSTSVGDRVSITCKASQDVSPAVAWYQQRPGQCPKLLIFSSSYRSTGVPDRFTGSGSGTDFTFTISSVQAEDLAVYYCQQHYSLPLTFGAGTKLELK
notes: human-murine chimeric antibody, human IgG1

Continued, binder first:

B1: F3.40.14 (antibody, human IgG1, V domains shown)
VH: QAQLQQSGPELVKPGASVKISCKASGYAFSGSWMNWVQQRPGKGLEWIGRIYPGDGDTYYSGKFKDKAILTADTSSSTAYMQLSSLTSEDSAVYFCAQLRSRYVMDYWGQGASVTVSS
VL: DIVLTQSPASLAVSLGQRATISCRASESVSIHGTHLMHWYQQKPGQPPRLLIYAASNLESGVPARFSGSGSETDFTLNIHPVEEEDAATYFCQQGIDDPYTFGGGTKLEIK
notes: as for B5
OD450 [1]: 0.05
OD450 [2]: 0.05
binding result [3]: no binding
OD450 [4]: 0.06
OD450 [5]: 0.11
binding result [6]: no binding
OD450 [7]: 1.19
OD450 [8]: 0.42
OD450 [9]: 1.01

B3: F3.114.12 (antibody, human IgG1, V domains shown)
VH: DVQLQESGPGLVKPSQSLSLTCSVTGYSITSGYDWNWIRQFPGNKLEWMGYISYDGKNNYNPSLRNRISITRDTSKNQFFLKLNSVTTEDTATYYCARRDLRGYFDVWGTGTTVTVSS
VL: DIVLTQSPATLSVTPGDRVSLSCRASQSISNYLHWYQQKSHESPRLLIKYASLSISGIPSRFSGSGSGTDFTLSINSVETEDFGVYFCQQSNSWPLTFGAGTKLELK
notes: as for B5
OD450 [1]: 0.05
OD450 [2]: 0.05
binding result [3]: no binding
OD450 [4]: 0.05
OD450 [5]: 0.08
binding result [6]: no binding
OD450 [7]: 0.61
OD450 [8]: 0.24
OD450 [9]: 0.46

B4: F3.81.2 (antibody, human IgG1, V domains shown)
VH: QVQLQQPGAELVMPGASVKLSCKASAYTFTNYWMHWVKQRPGHGLEWIGEIDPSDSYTDYNQNFKAKATLTVDKSSSTAYMQLSSLTSEDSAVYYCARLMGRYFDVWGTGTTVTVSS
VL: B5 VL with P31A, R39K, C43S, F49N, S51A, S55Y, L94T, K107R
notes: as for B5
OD450 [1]: 0.05
OD450 [2]: 0.05
binding result [3]: no binding
OD450 [4]: 0.07
OD450 [5]: 0.24
binding result [6]: no binding
OD450 [7]: 1.4
OD450 [8]: 0.74
OD450 [9]: 1.05

— US20250042994A1 (HAINAN SIMCERE ZAIMING PHARMACEUTICAL, published 2025)
